Laboratory results taken from patent publication US11260115B1, “Peptides and combination of peptides for use in immunotherapy against CLL and other cancers” (immatics biotechnologies GmbH, priority 2015, dated 2022).

Biological target: HLA-A*02:01 (Homo sapiens, UniProt P04439, D140Y/D185E/D98H/E176V/E277Q/G131W/G231S/I119V/I121R/I166T/I218V/L300P/L318F/N151K/N90K/P208A/P217A/Q86G/Q94H/R138H/R169H/T345S)
Assay: MHC binding assay (UV-ligand exchange, β2m ELISA, peptide exchange yield)
Details: binding to HLA-A*02:01
Source text: Candidate peptides for T cell based therapies according to the present invention were further tested for their MHC binding capacity (affinity). The individual peptide-MHC complexes were produced by UV-ligand exchange, where a UV-sensitive peptide is cleaved upon UV-irradiation, and exchanged with the peptide of interest as analyzed. Only peptide candidates that can effectively bind and stabilize the peptide-receptive MHC molecules prevent dissociation of the MHC complexes. To determine the yield of the exchange reaction, an ELISA was performed based on the detection of the light chain (β2m) of stabilized MHC complexes. The assay was performed as generally described in Rodenko et al. (Rodenko et al., 2006).
96 well MAXISorp plates (NUNC) were coated over night with 2 ug/ml streptavidin in PBS at room temperature, washed 4× and blocked for 1 h at 37° C. in 2% BSA containing blocking buffer. Refolded HLA-A*02:01/MLA-001 monomers served as standards, covering the range of 15-500 ng/ml. Peptide-MHC monomers of the UV-exchange reaction were diluted 100 fold in blocking buffer. Samples were incubated for 1 h at 37° C., washed four times, incubated with 2 ug/ml HRP conjugated anti-β2m for 1 h at 37° C., washed again and detected with TMB solution that is stopped with […]. Absorption was measured at 450 nm. Candidate peptides that show a high exchange yield (preferably higher than 50%, most preferred higher than 75%) are generally preferred for a generation and production of antibodies or fragments thereof, and/or T cell receptors or fragments thereof, as they show sufficient avidity to the MHC molecules and prevent dissociation of the MHC complexes.
Table 11: MHC class I binding scores. Binding of HLA-class I restricted peptides to HLA-A*02:01 was ranged by peptide exchange yield: ≥10%=+; ≥20%=++; ≥50=+++; ≥75%=++++

Substance | Peptide Exchange (MHC class I binding score, peptide exchange yield)
82 (GLQSGVDIGV; listed as Homo sapiens) [compound 82] | “+++” (>50 = +++)
277 (VMILKLPFL; listed as Homo sapiens) [compound 277] | “++” (>20% = ++)
11 (ALFTFSPLTV; listed as Homo sapiens) [compound 11] | “+++” (>50 = +++)
35 (FILPSSLYL; listed as Homo sapiens) [compound 35] | “+++” (>50 = +++)
176 (VLAEQNIIPSA; listed as Homo sapiens) [compound 176] | “+++” (>50 = +++)
247 (KLKDRLPSI; listed as Homo sapiens) [compound 247] | “++” (>20% = ++)
198 (YLTFLPAEV; listed as Homo sapiens) [compound 198] | “+++” (>50 = +++)
315 (LVYEAPETV; listed as Homo sapiens) [compound 315] | “+++” (>50 = +++)
195 (YLGGFALSV; listed as Homo sapiens) [compound 195] | “++++” (>75% = ++++)
214 (RLQELTEKL; listed as Homo sapiens) [compound 214] | “+++” (>50 = +++)
383 (YLLREWVNL; listed as Homo sapiens) [compound 383] | “++++” (>75% = ++++)
118 (RLLILENILL; listed as Homo sapiens) [compound 118] | “+++” (>50 = +++)
294 (ALLDQLHTLL; listed as Homo sapiens) [compound 294] | “++++” (>75% = ++++)
278 (YLDDLLPKL; listed as Homo sapiens) [compound 278] | “+++” (>50 = +++)
283 (ILQPMDIHV; listed as Homo sapiens) [compound 283] | “+++” (>50 = +++)
50 (FLFEPVVKAFL; listed as Homo sapiens) [compound 50] | “+++” (>50 = +++)
289 (ILEEQPMDMLL; listed as Homo sapiens) [compound 289] | “+++” (>50 = +++)
14 (ALLRLLPGL; listed as Homo sapiens) [compound 14] | “+++” (>50 = +++)
40 (FLDEDDMSL; listed as Homo sapiens) [compound 40] | “++” (>20% = ++)
310 (LLSTLHLLV; listed as Homo sapiens) [compound 310] | “+++” (>50 = +++)
63 (SLAHVAGCEL; listed as Homo sapiens) [compound 63] | “+++” (>50 = +++)
113 (KVPAEEVLVAV; listed as Homo sapiens) [compound 113] | “+++” (>50 = +++)
106 (FMASHLDYL; listed as Homo sapiens) [compound 106] | “+++” (>50 = +++)
150 (SLFDQPLSII; listed as Homo sapiens) [compound 150] | “+++” (>50 = +++)
268 (TLLQVFHLL; listed as Homo sapiens) [compound 268] | “+++” (>50 = +++)
126 (LLPEGGITAI; listed as Homo sapiens) [compound 126] | “+++” (>50 = +++)
172 (TLYDMLASI; listed as Homo sapiens) [compound 172] | “+++” (>50 = +++)
265 (TLLADDLEIKL; listed as Homo sapiens) [compound 265] | “+++” (>50 = +++)

Substance | Peptide Exchange (MHC class I binding score, peptide exchange yield)
321 (RLLEFELAQL; listed as Homo sapiens) [compound 321] | “+++” (>50 = +++)
242 (ILLGIQELL; listed as Homo sapiens) [compound 242] | “+++” (>50 = +++)
255 (YLFEEAISM; listed as Homo sapiens) [compound 255] | “+++” (>50 = +++)
337 (YMYEKESEL; listed as Homo sapiens) [compound 337] | “++” (>20% = ++)
177 (VLDDRELLL; listed as Homo sapiens) [compound 177] | “+++” (>50 = +++)
239 (ILAGEMLSV; listed as Homo sapiens) [compound 239] | “+++” (>50 = +++)
345 (YLIEPDVELQRI; listed as Homo sapiens) [compound 345] | “+++” (>50 = +++)
142 (QLDEPAPQV; listed as Homo sapiens) [compound 142] | “++” (>20% = ++)
202 (YVDDVFLRV; listed as Homo sapiens) [compound 202] | “++++” (>75% = ++++)
180 (LLKDGPEIGL; listed as Homo sapiens) [compound 180] | “++” (>20% = ++)
243 (ILPTLEKELFL; listed as Homo sapiens) [compound 243] | “+++” (>50 = +++)
331 (VLWELAHLPTL; listed as Homo sapiens) [compound 331] | “+++” (>50 = +++)
99 (ILIFHSVAL; listed as Homo sapiens) [compound 99] | “+++” (>50 = +++)
252 (NLLDPGSSYLL; listed as Homo sapiens) [compound 252] | “+++” (>50 = +++)
41 (FLDPSLDPLL; listed as Homo sapiens) [compound 41] | “+++” (>50 = +++)
194 (YLDNVLAEL; listed as Homo sapiens) [compound 194] | “++++” (>75% = ++++)
350 (ALEDRVWEL; listed as Homo sapiens) [compound 350] | “+++” (>50 = +++)
238 (GLVETELQL; listed as Homo sapiens) [compound 238] | “+++” (>50 = +++)
85 (HLMLHTAAL; listed as Homo sapiens) [compound 85] | “++++” (>75% = ++++)
5 (ALIFKIASA; listed as Homo sapiens) [compound 5] | “+++” (>50 = +++)
167 (TLDTSKLYV; listed as Homo sapiens) [compound 167] | “+++” (>50 = +++)
6 (ALDTLEDDMTI; listed as Homo sapiens) [compound 6] | “+++” (>50 = +++)
256 (QLLPVSNVVSV; listed as Homo sapiens) [compound 256] | “+++” (>50 = +++)
16 (ALPGGAAVAAV; listed as Homo sapiens) [compound 16] | “++++” (>75% = ++++)
316 (MLLEHGITL; listed as Homo sapiens) [compound 316] | “+++” (>50 = +++)
74 (GLLRASFLL; listed as Homo sapiens) [compound 74] | “++” (>20% = ++)
31 (ELMHGVAGV; listed as Homo sapiens) [compound 31] | “+++” (>50 = +++)
